# Experimental data reported in patent US20060270591A1, “Androgen receptor coregulators” (priority 2002, published 2006).
# B1: ARA54: 54 kDa protein that interacts with AR in an androgen-dependent manner; AR coactivator (protein)
# chain: MSSEDREAQEDELLALASIYDGDEFRKAESVQGGETRIYLDLPQNFKIFVSGNSNECLQNSGFEYTICFLPPLVLNFELPPDYPSSSPPSFTLSGKWLSPTQLSALCKHLDNLWEEHRGSVVLFAWMQFLKEETLAYLNIVSPFELKIGSQKKVQRRTAQASPNTELDFGGAAGSDVDQEEIVDERAVQDVESLSNLIQEILDFDQAQQIKCFNSKLFLCSICFCEKLGSECMYFLECRHVYCKACLKDYFEIQIRDGQVQCLNCPEPKCPSVATPGQVKELVEAELFARYDRLLLQSSLDLMADVVYCPRPCCQLPVMQEPGCTMGICSSCNFAFCTLCRLTYHGVSPCKVTAEKLMDLRNEYLQADEANKRLLDQRYGKRVIQKALEEMESKEWLEKNSKSCPCCGTPIEKLDGCNKMTCTGCMQYFCWICMGSLSRANPYKHFNDPGSPCFNRLFYAVDVDDDIWEDEVED
# B2: C′-ARA54: C-terminal region (amino acids 361-474) of ARA54 (protein)
# chain: RNEYLQADEANKRLLDQRYGKRVIQKALEEMESKEWLEKNSKSCPCCGTPIEKLDGCNKMTCTGCMQYFCWICMGSLSRANPYKHFNDPGSPCFNRLFYAVDVDDDIWEDEVED
# modifications: Homo sapien
# notes: C-terminal region (amino acids 361-474) of ARA54
# Tests used:
# AR = AR transactivation assay, MMTV-CAT reporter, transient transfection (Example 1); format: cell-based, human
# Experimental: Human prostate cancer DU145 or PC3 cells, or human lung carcinoma cells NCI H1299 were grown in Dulbecco's minimal essential medium (DMEM) containing penicillin (25 U/ml), streptomycin (25˜g/ml), and 5% fetal calf serum (FCS). One hour before transfection, the medium was changed to DMEM with 5% charcoal-stripped FCS. […] A β-galactosidase expression plasmid, pCMV-β-gal, was used as an internal control for transfection efficiency.
# The medium was changed 24 hr posttransfection and the cells treated with either steroid hormones or hydroxyflutamide, and cultured for an additional 24 hr. Cells were harvested and assayed for CAT activity after the cell lysates were normalized by using β-galactosidaseas an internal control. Chloramphenicol acetyltransferase (CA) activity was visualized by PhosphorImager (Molecular Dynamics) and quantitated by ImageQuant software (Molecular Dynamics).
# PR = target: T1, PR (Homo sapiens, UniProt P06401); test: PR transactivation reporter gene assay (Example 2); format: cell-based
# T1 construct: expressed in transfected cells; host or cells: DU145, PC-3
# T1 sequence (P06401 1-933): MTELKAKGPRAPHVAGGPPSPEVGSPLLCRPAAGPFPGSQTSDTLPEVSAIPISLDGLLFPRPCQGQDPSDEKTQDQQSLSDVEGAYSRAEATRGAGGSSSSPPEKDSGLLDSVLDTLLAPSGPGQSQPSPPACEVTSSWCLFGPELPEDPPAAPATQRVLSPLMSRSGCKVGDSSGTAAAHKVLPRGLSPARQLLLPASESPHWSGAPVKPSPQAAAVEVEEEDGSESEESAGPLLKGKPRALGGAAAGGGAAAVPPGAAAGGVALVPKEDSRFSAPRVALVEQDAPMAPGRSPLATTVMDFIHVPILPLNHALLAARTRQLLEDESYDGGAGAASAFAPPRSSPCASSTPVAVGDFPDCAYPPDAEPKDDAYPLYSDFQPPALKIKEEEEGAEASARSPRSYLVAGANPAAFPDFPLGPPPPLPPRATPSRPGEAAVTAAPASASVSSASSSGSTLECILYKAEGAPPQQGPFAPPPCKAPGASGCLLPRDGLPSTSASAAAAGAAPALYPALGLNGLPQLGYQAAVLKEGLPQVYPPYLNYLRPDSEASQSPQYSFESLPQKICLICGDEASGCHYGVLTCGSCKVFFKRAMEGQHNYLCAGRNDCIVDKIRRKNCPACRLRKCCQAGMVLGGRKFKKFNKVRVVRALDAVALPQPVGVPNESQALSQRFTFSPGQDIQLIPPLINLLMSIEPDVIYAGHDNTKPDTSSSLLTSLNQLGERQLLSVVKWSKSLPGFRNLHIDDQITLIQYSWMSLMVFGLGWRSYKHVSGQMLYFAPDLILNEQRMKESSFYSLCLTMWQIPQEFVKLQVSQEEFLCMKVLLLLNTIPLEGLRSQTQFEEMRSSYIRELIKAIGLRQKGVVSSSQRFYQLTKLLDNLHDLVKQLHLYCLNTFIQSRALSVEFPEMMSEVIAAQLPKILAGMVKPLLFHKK
# Experimental: 12. […] PC-3 (A) or DU145 (B) cells were transfected with MMTV-CAT (2.5 μg), steroid receptor expression plasmid (AR, PR, or GR; 1.0 μg for PC-3 and 0.75 μg for DU145), and pSG5-C′-ARA54 (C′) or pSG5-mt-ARA54 (mt) (8.0 μg for PC-3 and 6.75 μg for DU145), with (for DU145) or without (for PC-3) pSG5-fl-ARA54 (2.25 μg). The total amount of DNA was adjusted to 12.5-13.25 μg with pSG5 for each transfection. […] The CAT activity is presented relative to that of vector alone with cognate ligand in each panel (black bars; set as 100%). Values represent the mean±SD of at least three determinations.
# 394. The human prostate cancer cell lines, LNCaP, PC-3, and DU145, were maintained in Dulbecco's minimum essential medium (DMEM) containing 5% fetal calf serum (FCS). Transfections using the calcium phosphate precipitation method and chloramphenicol acetyltransferase (CAT) and luciferase (Luc) assays were performed as previously described (Miyamoto et al. (1998) Proc. Natl. Acad. Sci. U.S.A. 95, 7379-7384; Yeh et al. (1999) Endocrine 11, 195-202; Miyamoto et al. (1998) Proc. Natl. Acad. Sci. U.S.A. 95, 11083-11088). Briefly, 1-4×10^5 cells were plated on 35-mm or 60-mm dishes 24 h before adding the precipitation mix containing a CAT or Luc reporter gene and a β-galactosidase expression plasmid (pCMV-β-gal) as an internal control for normalization of transfection efficiency. The medium was changed to phenol-red-free DMEM with 5% charcoal-stripped FCS 1 h before transfection. In each experiment, the total amount of transfected DNA per dish was maintained as a constant by addition of empty expression vector (pSG5 or pVP16, as appropriate). […] The cells were then harvested and whole cell extracts were used for CAT or Luc assay. The CAT activity was quantitated with a PhosphorImager (Molecular Dynamics). The Luc assay was determined using a Dual-Luciferase Reporter Assay System (Promega) and luminometer.
# AR, sequence (P10275 whole entry): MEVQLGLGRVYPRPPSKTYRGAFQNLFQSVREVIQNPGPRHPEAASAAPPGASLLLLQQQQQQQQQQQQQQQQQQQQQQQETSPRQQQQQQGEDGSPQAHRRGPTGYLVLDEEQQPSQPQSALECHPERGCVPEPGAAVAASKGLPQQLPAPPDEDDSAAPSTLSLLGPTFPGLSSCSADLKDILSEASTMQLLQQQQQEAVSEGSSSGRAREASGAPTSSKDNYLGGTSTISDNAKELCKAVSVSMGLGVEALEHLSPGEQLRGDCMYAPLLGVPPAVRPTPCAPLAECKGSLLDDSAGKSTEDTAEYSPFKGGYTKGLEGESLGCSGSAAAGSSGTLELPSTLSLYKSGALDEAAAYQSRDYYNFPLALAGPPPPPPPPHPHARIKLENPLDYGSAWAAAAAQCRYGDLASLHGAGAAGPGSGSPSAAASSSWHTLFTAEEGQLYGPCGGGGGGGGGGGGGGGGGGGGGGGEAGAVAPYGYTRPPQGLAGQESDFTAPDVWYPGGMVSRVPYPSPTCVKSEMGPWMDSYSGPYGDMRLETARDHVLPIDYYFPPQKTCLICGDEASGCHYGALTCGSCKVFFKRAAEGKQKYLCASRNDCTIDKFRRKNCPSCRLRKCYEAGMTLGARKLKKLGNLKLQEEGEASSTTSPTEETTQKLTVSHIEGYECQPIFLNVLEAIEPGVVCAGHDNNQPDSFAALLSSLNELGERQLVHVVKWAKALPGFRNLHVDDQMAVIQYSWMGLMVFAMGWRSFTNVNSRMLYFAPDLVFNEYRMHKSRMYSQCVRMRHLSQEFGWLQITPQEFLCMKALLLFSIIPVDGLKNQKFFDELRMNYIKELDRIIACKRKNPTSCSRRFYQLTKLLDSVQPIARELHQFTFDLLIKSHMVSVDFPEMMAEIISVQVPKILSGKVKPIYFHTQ
Molecule,enhancement of the transcription activity of AR (AR; DU145 cells),"enhancement of wtAR transactivation by coexpression (AR; wtAR, DHT 10^−10 to 10^−8 M)","induction of PR transcription (PR; DU145 cells, cotransfected with PR)","inhibition of AR-mediated transcription (AR; H1299 cells, endogenous ARA54)",effect on fl-ARA54-induced PR transcription (PR; DU145 cells),"effect on PR-mediated transactivation (PR; PC-3 cell line, presence of P)"
B1,up to 6 fold,3-5 fold,2.9 fold,,,
B2,,,,up to 70%,little effect,only a marginal effect
